Earlier results on one substance are cited in publication PMC4303049.

pKd: −log10 of the molar value.

Data set [1] deals with PACS-2 FBR (Homo sapiens) (UniProt Q86VP3).
Data set [2] has as its target PACS-1 FBR (Homo sapiens) (UniProt Q6VY07).

Chain of PACS-1 FBR (Homo sapiens) (Q6VY07 117-266): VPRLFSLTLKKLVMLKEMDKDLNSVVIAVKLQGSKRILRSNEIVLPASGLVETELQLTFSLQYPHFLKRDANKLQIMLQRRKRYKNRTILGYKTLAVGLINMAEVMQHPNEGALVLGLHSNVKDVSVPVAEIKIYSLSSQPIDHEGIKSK
Chain of PACS-2 FBR (Homo sapiens) (Q86VP3 37-186): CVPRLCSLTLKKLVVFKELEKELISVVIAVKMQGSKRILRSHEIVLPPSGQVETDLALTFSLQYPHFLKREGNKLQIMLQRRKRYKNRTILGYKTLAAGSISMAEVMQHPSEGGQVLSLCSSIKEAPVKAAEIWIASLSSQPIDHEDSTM

A word on the pKd: it is −log10 of the Kd, conventionally taken in molar units. In the case of “Polycystin-2 phosphorylated acidic cluster (from UniProt Q13563)”, the negative-log Kd (pKd) in data set [1] is 4.81; in data set [2] it was 4.83.
